From IntAct's records for PubMed 28827714

B1: Interleukin-17F (Homo sapiens), Q96PD4 (parent)
chain: MTVKTLHGPAMVKYLLLSILGLAFLSEAAARKIPKVGHTFFQKPESCPPVPGGSMKLDIGIINENQRVSMSRNIESRSTSPWNYTVTWDPNRYPSEVVQAQCRNLGCINAQGKEDISMNSVPIQQETLVVRRKHQGCSVSFQLEKVLVTVGCTCVTPVIHHVQ
partner: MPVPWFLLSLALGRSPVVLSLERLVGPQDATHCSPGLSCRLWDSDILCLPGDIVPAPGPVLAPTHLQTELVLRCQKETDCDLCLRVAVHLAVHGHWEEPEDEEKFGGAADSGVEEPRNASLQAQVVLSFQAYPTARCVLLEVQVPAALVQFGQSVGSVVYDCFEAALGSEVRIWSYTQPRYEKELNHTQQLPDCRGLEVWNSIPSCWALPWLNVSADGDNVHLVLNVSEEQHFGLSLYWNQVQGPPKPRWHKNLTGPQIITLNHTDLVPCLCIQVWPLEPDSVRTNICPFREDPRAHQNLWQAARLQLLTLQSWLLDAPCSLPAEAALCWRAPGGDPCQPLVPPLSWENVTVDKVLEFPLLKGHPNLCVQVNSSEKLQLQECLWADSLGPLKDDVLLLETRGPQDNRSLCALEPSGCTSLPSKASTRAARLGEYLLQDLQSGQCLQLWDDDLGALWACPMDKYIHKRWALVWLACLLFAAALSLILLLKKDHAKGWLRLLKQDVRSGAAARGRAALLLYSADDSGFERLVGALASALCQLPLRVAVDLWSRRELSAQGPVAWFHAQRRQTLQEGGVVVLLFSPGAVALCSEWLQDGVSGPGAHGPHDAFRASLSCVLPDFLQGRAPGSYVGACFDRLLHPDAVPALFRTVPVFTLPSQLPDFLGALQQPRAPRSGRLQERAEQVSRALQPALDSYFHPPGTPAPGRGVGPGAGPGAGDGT
B2: Interleukin-17F (Homo sapiens), Q96PD4 (parent)
chain: B1 chain

Variants of: B1
Settings: with IL17RC
In the case of R77A, the “effect of a mutation on the interaction” value is reported as “decreasing interaction strength”.

Variants of: B2
Settings: with IL17RA
With R77A the “effect of a mutation on the interaction” value was “decreasing interaction strength”.
